# In the nanobody polyreactivity screen of Harvey et al. (2022):
# Assay: yeast display, Sf9 membrane polyspecificity reagent, FACS + sequencing; frameworks hold sequencing errors
# Method in brief: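 After 36–48 hours of galactose induction, yeast (Saccharomyces cerevisiae BJ5465) displaying a synthetic nanobody library were stained at 4 °C for 1 hour with 10% biotinylated, detergent-solubilized Sf9 membrane reagent. Streptavidin microbeads enriched the stained cells before FACS sorting into low and high (top ~1%) gates on anti-HA and streptavidin fluorescence. Each clone's polyreactivity label reflects its gate of origin.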
row,Sequence,polyreactivity (PSR sort gate)
1,QVQLVESGGGLVQAGGSLRLSCAASGSIFAGNAMGWYRQAPGKERELVAAITWSGGSTYYADSVKGRFTISRDNAKNTVYLQMNSLKPEDTAVYYCAADPPGYVYGKRYYWGQGTQVTVSS,high polyreactivity
2,QVQLVESGGGLVQAGGSLRLSCAASGSIFAGNVMGWYRQAPGKERELVAAISRRGGRTYYADSVKGRFTISRDNAKNTVYLQMNSLKPEDTAVYYCAARRDPVLGKSDYWGQGTQVTVSS,high polyreactivity
3,QVQLVESGGGLVQAGGSLRLSCAASGSIFAGYAMGWYRQAPGKERELVAAISRSGGRTYYADSVKRRFTISRDNAKNTVNLQMNSLKPEDTAVYYCAAHRRSANDYDYWGQGTQVTVSS,high polyreactivity
4,QVQLVESGGGLVQAGGSLRLSCAASGSIFAHYTMGSYRQAPGKEREFVAAITKSGGRTYYADSVKGRFTISRDNAKNTVYLQMNSLKPEDTAVYYCARRRTIPYTLVDYDSWGQGTQVTVSS,low polyreactivity
5,QVQLVESGGGLVQAGGSLRLSCAASGSIFAINTMGWYRQAPGKERELVAAITSGGSTYYSDSVKGRFTISRDNAKNTVYLQMNSLKPEDTAVYYCAATPIGQHFTVDYWGQGTQVTVSS,low polyreactivity
6,QVQLVESGGGLVQAGGSLRLSCAASGSIFALYAMGWYRQAPGKERELVAAIDWSDGGTYYADSVKGRFTISRDNAKNTVYLQMNSLKPEDTAVYYCAADQYWDGYDFLYDYWGQGTQVTVSS,low polyreactivity
7,QVQLVESGGGLVQAGGSLRLSCAASGSIFALYAMGWYRQAPGKERELVAAISYRGGRTYYADSVKGRFTISRDNAKNTVYLQMYSLKPEDTAVYNCATDFPGKFDYWGQGTQVTVSS,low polyreactivity
8,QVQLVESGGGLVQAGGSLRLSCAASGSIFALYTMGWYRQAPGKERELVAAISRRGGKTYYADSVKGRFTISRDNAKNTVYLQMNSLKPEDTAVYYCNADRLRSTHDYWGQGTQVTVSS,high polyreactivity
9,QVQLVESGGGLVQAGGSLRLSCAASGSIFALYTMGWYRQAPGKEREMVAAISRRGGNKYYADSVKGRFTISRDNAKNTVYLQMNRLKPEDTAVYYCNADRLRSTHDYWGQGTQVSVSS,high polyreactivity
10,QVQLVESGGGLVQAGGSLRLSCAASGSIFAPNAMGWYRQAPGKERELVAAISRSGGRTYYADSVKGRFTISRDNAKNTVYFQMNSLKPEDTAVYYCAADYKHQRTYGSWGQGTQVTVSS,high polyreactivity
11,QVQLVESGGGLVQAGGSLRLSCAASGSIFAQYAMGWYRQAPGKERELVATISSVGSTNYADSVKGRFTISRDNAKNTVYLQMNSLKPEDTAVYYCAARYPVGRSPRAYEYWGQGTQVTVSS,low polyreactivity
12,QVQLVESGGGLVQAGGSLRLSCAASGSIFAQYGLGWYRQAPGKERELVADISGPGVSTYYADSVKGRFTISRDNAKNTVYLQMNSLKPEDSAVYYCAADYYYPYYWGQGTQVTVSS,low polyreactivity
13,QVQLVESGGGLVQAGGSLRLSCAASGSIFARYAMGWYRQAPGKERELVATISYRGSSTYYADSVKGRFKISRDNAKNTVYLQMNRLKPEDTAVYSCAARTYRRIYAYYRLDYWGQGTQVTVSS,low polyreactivity
14,QVQLVESGGGLVQAGGSLRLSCAASGSIFARYTMGWYRQAPGKERELVARITSSGGSTYYADSVKGRFTISRDNAKNTVYLQMNSLKPEDTAVYYCNKAYRYYWRMEYWGQGTQVTVSS,high polyreactivity
15,QVQLVESGGGLVQAGGSLRLSCAASGSIFASNSMGWYRQEPGQERELVAAINSGDSTNYADTVKGRFTISRDTAKNTVYLQMNSLKPEDTAVYYCARGLEERYDYWGQRTQVTVSS,low polyreactivity
16,QVQLVESGGGLVQAGGSLRLSCAASGSIFASYALGWYRQAAGKEREFVAAISQSGSRTYNADSVKGRFTISRDNANNTVSLHMNSLKPEDTAVYYCNAKRGTWNYDYWGQGTQVTVSS,high polyreactivity
17,QVQLVESGGGLVQAGGSLRLSCAASGSIFASYAMGWYRQAPGKERELVAAISRRAVRTYYADSVKGRFTISRDNAKNTVYLQMNSLKPEDTAVYYCNAASSLPGYDYWGQGTQVTVSS,high polyreactivity
18,QVQLVESGGGLVQAGGSLRLSCAASGSIFASYAMGWYRQAPGKERELVAAITRGGRTNYADSVKGRFTISRDNAKNTVYLQMNSLKPEDTAVYYCAKQYALVWRGYIYGYWGQGTQVTVSS,high polyreactivity
19,QVQLVESGGGLVQAGGSLRLSCAASGSIFASYAMGWYRQAPGKESELVAAITYSGSRTYYADSVKGRFTISRYNAKNTVYLQMNSMKPEDTAVYYCNADYYWYPYEDDYWGQGSQVTVSS,low polyreactivity
20,QVQLVESGGGLVQAGGSLRLSCAASGSIFASYAMGWYRQEPGKERELVAAISRRAVRTYYADSVKGRFTISRDNAQNTVYLQMNSLKPEDTAVFYCAKDYRDWRKYDFWGQGTQVTVSS,high polyreactivity
21,QVQLVESGGGLVQAGGSLRLSCAASGSIFATNAMGWYRQAPGKERELVAAISRSGASTYYADSVKGRFTISRDNAKNTVYLQMNSLKPEDPAVYYCNKVLYRDAYHSYGFDYWGQGTQVTVSS,high polyreactivity
22,QVQLVESGGGLVQAGGSLRLSCAASGSIFATNAMGWYRQAPGKERELVATITNSGASTSYADSVKGRFTISRDNAKNTVYLQMNSLKPEDTAVYYCNAYGYRAYGVRGYTYGYDYWGQGTQVTVSS,low polyreactivity

row,Sequence,polyreactivity (PSR sort gate)
1,QVQLVESGGGLVQAGGSLRLSCAASGSIFATYAMGWYRQAPGKEMELVAVISCGGGRTNYADSVKGRFTISRDNAKNTVYLQLNSLKPEDTAVYYCAAGGYWRIATDGPRGGDYWGQGTQVTVSS,high polyreactivity
2,QVQLVESGGGLVQAGGSLRLSCAASGSIFAVNPMGWYRQAPGKERELVASITSGGSTNYADSVKGRFTISRDNAKIRVYLQMNRLKPEDTAVYYCNADSVRAVSRYDYWGQGTQVTVSS,low polyreactivity
3,QVQLVESGGGLVQAGGSLRLSCAASGSIFAVNTMGWYRQAPGKERELVAAISQRGSSTYYADSVKGRFTISRDNAKNTVYLKMNSMKPEDTAVFFCAKRFIYGLYNYWGQGTQVTVSS,high polyreactivity
4,QVQLVESGGGLVQAGGSLRLSCAASGSIFAWNAMGWYRQAPGKERELVATIRSTGGSTYYADSVKGRFTISRDNAKNTVYLQMNSLKPEYTAVYYCAADYQAGDKLYDYWGQGTQVTVSS,low polyreactivity
5,QVQLVESGGGLVQAGGSLRLSCAASGSIFAWYGMGWYRQAPGKERELVAAISTAGSTNYADSVKGRFTISRDNAKNSVYLQMNSLKPEDTAVYYCAKKSSWYYPERFDYWGQGTQVTVSS,low polyreactivity
6,QVQLVESGGGLVQAGGSLRLSCAASGSIFAWYGMGWYRQAPGKERELVAAITSTGSTYYADSVKGRFTISRDNAKNTVYLQMNSLKPEDTAVYYCNAYSVYLWRPGDYWGQGTQVTVSS,low polyreactivity
7,QVQLVESGGGLVQAGGSLRLSCAASGSIFAYNAMGRYRPAPGKERELVAAITSDDSTNYADSVKGSFTISRDNAQNTVYLQMNSLKPEDTAVYDCAAYYYYTYIIGYDYCGQGTQVTVSS,low polyreactivity
8,QVQLVESGGGLVQAGGSLRLSCAASGSIFAYNAMGWYRQAPGKEREFVAAISQSGGRTYYADSVKGRFTISRDNAKNTVYLQMNSLKPEDTAVYYCATDGIRLTRHRDYDYWGQGTQVTVSS,low polyreactivity
9,QVQLVESGGGLVQAGGSLRLSCAASGSIFAYNAMGWYRQAPGKEREFVAVITRSDDSTYADSVKGRFTISRDNAKNTVYLQMNSLKPEDTAVYYCAAEYYETPYASLGYDYWGQGTQVTVSS,low polyreactivity
10,QVQLVESGGGLVQAGGSLRLSCAASGSIFAYNAMGWYRQAPGKERELVAAITDSGGSTFYADSVKGRFTISRDNAKTTVYLQMNSQKPEDTAVYYCATSGDRLVWGQCTQVTVSS,low polyreactivity
11,QVQLVESGGGLVQAGGSLRLSCAASGSIFAYYAMGMYRQEPGKERELVAVIRSGGSTYYADSVKGRFTISRDNAKNTVYLQMNSLKPEDTAVYYCAARSYRPTRGDYWGQGTQVTVSS,high polyreactivity
12,QVQLVESGGGLVQAGGSLRLSCAASGSIFAYYAMGWYRPAPGKERELVAAITVSGGRTNYADSVKGRFTISRDNAKNTVYLQMNSLKPEDTAVYYCAADTYSYWYARYDYWGQGTQVTVSS,high polyreactivity
13,QVQLVESGGGLVQAGGSLRLSCAASGSIFAYYAMGWYRQAPGKEMELVARIRRRSSSTFYADSVKGRFTISRDNAKNTVYLQMNSLKPEDTAVYYCAVRGPGTSTYWYHEYEYWGQGTQVTVSS,high polyreactivity
14,QVQLVESGGGLVQAGGSLRLSCAASGSIFAYYAMGWYRQAPGKERELVAAISRGGGSTYYADSVKGRFTISRDNAKNTVYLQMNSLKPEDTAVYYCAAQYVYWTNRVRQHVTLNDYWGQGTQVTVSS,high polyreactivity
15,QVQLVESGGGLVQAGGSLRLSCAASGSIFAYYAMGWYRQAPGKERELVAAISWSGGRTYYADSVKGRFTISRDNAKNTVYLEMNSLIPEDTAVYYCTAYFYSFYYPFPYESWGQGTQVTVSS,low polyreactivity
16,QVQLVESGGGLVQAGGSLRLSCAASGSIFAYYAMGWYRQAPGKERELVAAITSGDSTYYADSVKGRFTISRDNAKNTVYLQMNSLKPEDTAVYYCAADHIWFYFYLYDYWGQGTQVTVSS,high polyreactivity
17,QVQLVESGGGLVQAGGSLRLSCAASGSIFAYYTMGWYRQAHGKERELVAAISRSGGSTNYADSVKGRFTISRDNAKNTVYLQMNSLKPEDTAVYYCAVRRYSRRLFGYYYWGQGTQVTVSS,high polyreactivity
18,QVQLVESGGGLVQAGGSLRLSCAASGSIFCYYAMGWYRQAPGKERELVAAINSGVRTYYADSVKGRFTISRDNAKNTVYLQMISLKPEDTAVYYCAARYIFKGLRYGYWGQGTQVTVSS,high polyreactivity
19,QVQLVESGGGLVQAGGSLRLSCAASGSIFDAYMGWYRQAPGKERELVAGITRSGGSTYYADSVKGRFTISRDNAKNTVYLQMNSLKPEDTAVYYCAADYSSDGDYWGQGTQVTVSS,low polyreactivity
20,QVQLVESGGGLVQAGGSLRLSCAASGSIFDDNAMGWYRQAPGKERELVAAITSTDSTNYADSVKGRFTISRDNAKNTVYLQMNSLKPEDTAVYYCAKDARALWLHSGIYDYWGQGTQVTVSS,low polyreactivity
21,QVQLVESGGGLVQAGGSLRLSCAASGSIFDDYAMGWYRQAPGKERELVAANSGSGDITYYADSVKGRFTISRDNAKNTFYLQMNSLKPEDTAVYYCAAESVYTFYWGQGTQVTVSS,high polyreactivity
